# Results as given in patent US20200040358A1 (published 2020).
# T1: NY-ESO-1 peptide on HLA-B*07:02 (human)
# T1 peptide: SLLMWITQC
# T2: NY-ESO-1 peptide on HLA-A*02:01 (human)
# T2 peptide: SLLMWITQC
# T3: NY-ESO-1 peptide on HLA-A*02:01 (human (alpha3 domain mouse))
# T3 peptide: SLLMWITQC
# Target: T1, NY-ESO-1 peptide on HLA-B*07:02
# Assay: cytokine release
row,Binder,binding result
1,"TCR18168 (TCR, V domains shown) Valpha: QSVAQPEDQVNVAEGNPLTVKCTYSVSGNPYLFWYVQYPNRGLQFLLKYITGDNLVKGSYGFEAEFNKSQTSFHLKKPSALVSDSALYFCAVRELYSGAGSYQLTFGKGTKLSVIP Vbeta: QKPSRDICQRGTSLTIQCQVDSQVTMMFWYRQQPGQSLTLIATANQGSEATYESGFVIDKFPISRPNLTFSTLTVSNMSPEDSSIYLCSVGGAGVTDTQYFGPGTRLTVL",no recognition

# Target: T2, NY-ESO-1 peptide on HLA-A*02:01
# Assay: multimer staining
row,Binder,binding result
1,"TCR18168 (TCR, V domains shown) Valpha: QSVAQPEDQVNVAEGNPLTVKCTYSVSGNPYLFWYVQYPNRGLQFLLKYITGDNLVKGSYGFEAEFNKSQTSFHLKKPSALVSDSALYFCAVRELYSGAGSYQLTFGKGTKLSVIP Vbeta: QKPSRDICQRGTSLTIQCQVDSQVTMMFWYRQQPGQSLTLIATANQGSEATYESGFVIDKFPISRPNLTFSTLTVSNMSPEDSSIYLCSVGGAGVTDTQYFGPGTRLTVL",recognises
2,"TCR0010 (TCR, V domains shown) Valpha: QSVAQPEDQVNVAEGNPLTVKCTYSVSGNPYLFWYVQYPNRGLQFLLKYITGDNLVKGSYGFEAEFNKSQTSFHLKKPSALVSDSALYFCAVRDSFEGAGSYQLTFGKGTKLSVIP Vbeta: QKPSRDICQRGTSLTIQCQVDSQVTMMFWYRQQPGQSLTLIATANQGSEATYESGFVIDKFPISRPNLTFSTLTVSNMSPEDSSIYLCSVGGAGVTDTQYFGPGTRLTVL",recognises
3,"TCR0012 (TCR, V domains shown) Valpha: QSVAQPEDQVNVAEGNPLTVKCTYSVSGNPYLFWYVQYPNRGLQFLLKYITGDNLVKGSYGFEAEFNKSQTSFHLKKPSALVSDSALYFCAVRGLLNGAGSYQLTFGKGTKLSVIP Vbeta: QKPSRDICQRGTSLTIQCQVDSQVTMMFWYRQQPGQSLTLIATANQGSEATYESGFVIDKFPISRPNLTFSTLTVSNMSPEDSSIYLCSVGGAGVTDTQYFGPGTRLTVL",recognises
4,"TCR0014 (TCR, V domains shown) Valpha: QSVAQPEDQVNVAEGNPLTVKCTYSVSGNPYLFWYVQYPNRGLQFLLKYITGDNLVKGSYGFEAEFNKSQTSFHLKKPSALVSDSALYFCAVRDLFTGAGSYQLTFGKGTKLSVIP Vbeta: QKPSRDICQRGTSLTIQCQVDSQVTMMFWYRQQPGQSLTLIATANQGSEATYESGFVIDKFPISRPNLTFSTLTVSNMSPEDSSIYLCSVGGAGVTDTQYFGPGTRLTVL",recognises
5,"TCR0018 (TCR, V domains shown) Valpha: QSVAQPEDQVNVAEGNPLTVKCTYSVSGNPYLFWYVQYPNRGLQFLLKYITGDNLVKGSYGFEAEFNKSQTSFHLKKPSALVSDSALYFCAVRDLSDGAGSYQLTFGKGTKLSVIP Vbeta: QKPSRDICQRGTSLTIQCQVDSQVTMMFWYRQQPGQSLTLIATANQGSEATYESGFVIDKFPISRPNLTFSTLTVSNMSPEDSSIYLCSVGGAGVTDTQYFGPGTRLTVL",recognises
6,"TCR0020 (TCR, V domains shown) Valpha: QSVAQPEDQVNVAEGNPLTVKCTYSVSGNPYLFWYVQYPNRGLQFLLKYITGDNLVKGSYGFEAEFNKSQTSFHLKKPSALVSDSALYFCAVRSSYEGAGRYQLTFGKGTKLSVIP Vbeta: QKPSRDICQRGTSLTIQCQVDSQVTMMFWYRQQPGQSLTLIATANQGSEATYESGFVIDKFPISRPNLTFSTLTVSNMSPEDSSIYLCSVGGAGVTDTQYFGPGTRLTVL",recognises
7,"TCR0022 (TCR, V domains shown) Valpha: QSVAQPEDQVNVAEGNPLTVKCTYSVSGNPYLFWYVQYPNRGLQFLLKYITGDNLVKGSYGFEAEFNKSQTSFHLKKPSALVSDSALYFCAVRDDLVGAGSYQLTFGKGTKLSVIP Vbeta: QKPSRDICQRGTSLTIQCQVDSQVTMMFWYRQQPGQSLTLIATANQGSEATYESGFVIDKFPISRPNLTFSTLTVSNMSPEDSSIYLCSVGGAGVTDTQYFGPGTRLTVL",recognises
8,"TCR0024 (TCR, V domains shown) Valpha: QSVAQPEDQVNVAEGNPLTVKCTYSVSGNPYLFWYVQYPNRGLQFLLKYITGDNLVKGSYGFEAEFNKSQTSFHLKKPSALVSDSALYFCAVRDQALGAGSYQLTFGKGTKLSVIP Vbeta: QKPSRDICQRGTSLTIQCQVDSQVTMMFWYRQQPGQSLTLIATANQGSEATYESGFVIDKFPISRPNLTFSTLTVSNMSPEDSSIYLCSVGGAGVTDTQYFGPGTRLTVL",recognises
9,"TCR0028 (TCR, V domains shown) Valpha: QSVAQPEDQVNVAEGNPLTVKCTYSVSGNPYLFWYVQYPNRGLQFLLKYITGDNLVKGSYGFEAEFNKSQTSFHLKKPSALVSDSALYFCAVRDMANGAGSYQLTFGKGTKLSVIP Vbeta: QKPSRDICQRGTSLTIQCQVDSQVTMMFWYRQQPGQSLTLIATANQGSEATYESGFVIDKFPISRPNLTFSTLTVSNMSPEDSSIYLCSVGGAGVTDTQYFGPGTRLTVL",recognises
10,"TCR0030 (TCR, V domains shown) Valpha: QSVAQPEDQVNVAEGNPLTVKCTYSVSGNPYLFWYVQYPNRGLQFLLKYITGDNLVKGSYGFEAEFNKSQTSFHLKKPSALVSDSALYFCAVRDSKAGAGSYQLTFGKGTKLSVIP Vbeta: QKPSRDICQRGTSLTIQCQVDSQVTMMFWYRQQPGQSLTLIATANQGSEATYESGFVIDKFPISRPNLTFSTLTVSNMSPEDSSIYLCSVGGAGVTDTQYFGPGTRLTVL",recognises
11,"TCR0032 (TCR, V domains shown) Valpha: QSVAQPEDQVNVAEGNPLTVKCTYSVSGNPYLFWYVQYPNRGLQFLLKYITGDNLVKGSYGFEAEFNKSQTSFHLKKPSALVSDSALYFCAVRDLFCGAGSYQLTFGKGTKLSVIP Vbeta: QKPSRDICQRGTSLTIQCQVDSQVTMMFWYRQQPGQSLTLIATANQGSEATYESGFVIDKFPISRPNLTFSTLTVSNMSPEDSSIYLCSVGGAGVTDTQYFGPGTRLTVL",recognises
12,"TCR0036 (TCR, V domains shown) Valpha: QSVAQPEDQVNVAEGNPLTVKCTYSVSGNPYLFWYVQYPNRGLQFLLKYITGDNLVKGSYGFEAEFNKSQTSFHLKKPSALVSDSALYFCAVRDLTTGAGSYQLTFGKGTKLSVIP Vbeta: QKPSRDICQRGTSLTIQCQVDSQVTMMFWYRQQPGQSLTLIATANQGSEATYESGFVIDKFPISRPNLTFSTLTVSNMSPEDSSIYLCSVGGAGVTDTQYFGPGTRLTVL",recognises
13,"TCR0050 (TCR, V domains shown) Valpha: QSVAQPEDQVNVAEGNPLTVKCTYSVSGNPYLFWYVQYPNRGLQFLLKYITGDNLVKGSYGFEAEFNKSQTSFHLKKPSALVSDSALYFCAVRELYSVAVRYQLTFGKGTKLSVIP Vbeta: QKPSRDICQRGTSLTIQCQVDSQVTMMFWYRQQPGQSLTLIATANQGSEATYESGFVIDKFPISRPNLTFSTLTVSNMSPEDSSIYLCSVGGAGVTDTQYFGPGTRLTVL",recognises
14,"TCR0060 (TCR, V domains shown) Valpha: QSVAQPEDQVNVAEGNPLTVKCTYSVSGNPYLFWYVQYPNRGLQFLLKYITGDNLVKGSYGFEAEFNKSQTSFHLKKPSALVSDSALYFCAVRELYSRGVKWQLTFGKGTKLSVIP Vbeta: QKPSRDICQRGTSLTIQCQVDSQVTMMFWYRQQPGQSLTLIATANQGSEATYESGFVIDKFPISRPNLTFSTLTVSNMSPEDSSIYLCSVGGAGVTDTQYFGPGTRLTVL",recognises
15,"TCR0062 (TCR, V domains shown) Valpha: QSVAQPEDQVNVAEGNPLTVKCTYSVSGNPYLFWYVQYPNRGLQFLLKYITGDNLVKGSYGFEAEFNKSQTSFHLKKPSALVSDSALYFCAVRELYSTTFGWQLTFGKGTKLSVIP Vbeta: QKPSRDICQRGTSLTIQCQVDSQVTMMFWYRQQPGQSLTLIATANQGSEATYESGFVIDKFPISRPNLTFSTLTVSNMSPEDSSIYLCSVGGAGVTDTQYFGPGTRLTVL",recognises
16,"TCR0066 (TCR, V domains shown) Valpha: QSVAQPEDQVNVAEGNPLTVKCTYSVSGNPYLFWYVQYPNRGLQFLLKYITGDNLVKGSYGFEAEFNKSQTSFHLKKPSALVSDSALYFCAVRELYSALVTYQLTFGKGTKLSVIP Vbeta: QKPSRDICQRGTSLTIQCQVDSQVTMMFWYRQQPGQSLTLIATANQGSEATYESGFVIDKFPISRPNLTFSTLTVSNMSPEDSSIYLCSVGGAGVTDTQYFGPGTRLTVL",recognises
17,"TCR0068 (TCR, V domains shown) Valpha: QSVAQPEDQVNVAEGNPLTVKCTYSVSGNPYLFWYVQYPNRGLQFLLKYITGDNLVKGSYGFEAEFNKSQTSFHLKKPSALVSDSALYFCAVRELYSPRLMWQLTFGKGTKLSVIP Vbeta: QKPSRDICQRGTSLTIQCQVDSQVTMMFWYRQQPGQSLTLIATANQGSEATYESGFVIDKFPISRPNLTFSTLTVSNMSPEDSSIYLCSVGGAGVTDTQYFGPGTRLTVL",recognises
18,"TCR0070 (TCR, V domains shown) Valpha: QSVAQPEDQVNVAEGNPLTVKCTYSVSGNPYLFWYVQYPNRGLQFLLKYITGDNLVKGSYGFEAEFNKSQTSFHLKKPSALVSDSALYFCAVRELYSATVDYQLTFGKGTKLSVIP Vbeta: QKPSRDICQRGTSLTIQCQVDSQVTMMFWYRQQPGQSLTLIATANQGSEATYESGFVIDKFPISRPNLTFSTLTVSNMSPEDSSIYLCSVGGAGVTDTQYFGPGTRLTVL",recognises

# Target: T3, NY-ESO-1 peptide on HLA-A*02:01
# Assay: activation reporter or marker
row,Binder,binding result
1,"TCR18168 (TCR, V domains shown) Valpha: QSVAQPEDQVNVAEGNPLTVKCTYSVSGNPYLFWYVQYPNRGLQFLLKYITGDNLVKGSYGFEAEFNKSQTSFHLKKPSALVSDSALYFCAVRELYSGAGSYQLTFGKGTKLSVIP Vbeta: QKPSRDICQRGTSLTIQCQVDSQVTMMFWYRQQPGQSLTLIATANQGSEATYESGFVIDKFPISRPNLTFSTLTVSNMSPEDSSIYLCSVGGAGVTDTQYFGPGTRLTVL",recognises
